From US9766250B2, “Method for detecting protein-protein interaction” (MEDICAL & BIOLOGICAL LABORATORIES CO., LTD., priority 2011, dated 2017) come the findings set out here.

Test [1] concerns the target T1, interaction between BclX(L) and Bak (Homo sapiens, UniProt Q07817).
T1 construct: region having the 1st to 209th amino acids of the BclX(L) protein; expressed in transfected cells; host or cells: 293 cells, transient
As to the kind of experiment: Time course of fluorescent foci after ABT-737 addition, BclX(L)/Bak (Example 24). Type of test: cell-based. As to conditions: 293 cells co-expressing p62(PB1)-BclX(L) and Bak-AG; 15 μM. The procedure: (§1) The plasmid DNAs were mixed in equal amounts in the following combinations, and the genes were introduced into 293 cells by the same method as that described in Example 2: • a combination of pp62(PB1)-BclX(L) with pBak-hAG; and • a combination of pp62(PB1)-BclX(L) with phAG-Bax.
(§2) Then, to the 293 cells into these plasmid DNAs were introduced, ABT-737 (manufactured by Santa Cruz Biotechnology, Inc.) was added to the final concentration of 15 μM, and images were obtained by the same method as that described in Example 2 every 30 minutes for the cells co-expressing p62(PB1)-BclX(L) and Bak-AG, and every 5 minutes for the cells co-expressing p62(PB1)-BclX(L) and AG-Bax. On the basis of the obtained images, analysis was performed by the same method as that described in Example 11, and a graph was prepared by plotting a total fluorescence intensity of fluorescent foci (assemblies) against time. Note that, in the graph, the x axis represents time (minutes), provided that time when the drug was added is 0, and the y axis represents the total fluorescence intensity of fluorescent foci (assemblies).

Test [2] concerns the target T2, interaction between BclX(L) and Bax (Homo sapiens, UniProt Q07817).
T2 construct: region having the 1st to 209th amino acids of the BclX(L) protein; expressed in transfected cells; host or cells: 293 cells, transient
As to the kind of experiment: Time course of fluorescent foci after ABT-737 addition, BclX(L)/Bax (Example 24). Format: cell-based. As to conditions: 293 cells co-expressing p62(PB1)-BclX(L) and AG-Bax; 15 μM. The procedure:
as §1, §2

Test [3] concerns interaction between an ERK substrate and Pin1(ww). Briefly: Time course of fluorescent foci after EGF and U0126, 293 cells (Example 27). Format: cell-based. The settings on record: same cells; 10 μM, added 14 minutes after EGF. The procedure: On the next day, EGF (manufactured by SIGMA CO.) was added to the cells to the final concentration of 50 ng/ml. Further, 14 minutes thereafter, U0126 was added to the cells to the final concentration of 10 μM. Meanwhile, the cell observation was started 2 minutes before the EGF addition, and the observed images were obtained every 15 seconds. The obtained images were used to analyze a total fluorescence luminance of fluorescent foci (assemblies) by the same method as that described in Example 11, and a graph was prepared by plotting the total fluorescence luminance against time.

The subject of test [4] is interaction between calmodulin and M13 peptide of myosin light chain kinase 2. As to conditions: 200 μM. The procedure: pCalmodulin-hAG and pM13peptide-p62(PB1) were mixed in equal amounts and introduced into HeLaS3 cells by the same method as that described in Example 1. Then, 200 μM histamine (manufactured by Wako Pure Chemical Industries, Ltd.) was added thereto, and fluorescence images were captured over time.

Test [5] concerns interaction between Rac1 and PBD. As to the kind of experiment: Localization of fluorescent foci after mevastatin, Rac1/PBD (Example 22). Format: cell-based. The settings on record: cells co-expressing AG-Rac1 and p62(PB1)-PBD; 10 μM; 15 hours. The procedure: (§3) Then, each of the following combinations of the plasmid DNAs was mixed in equal amounts and introduced into cells by the same method as in Example 2: • a combination of phAG-Rac1 with pp62(PB1)-PBD; and • a combination of phAG-Rac1 with pRhoGDI-p62(PB1). Then, after culturing for 6 hours after the transfection, an inhibitor mevastatin (Enzo Life Sciences, Inc.) against geranylgeranyl group modification was added to the final concentration of 10 μM, allowed for further culturing for 15 hours, and observed.

For test [6], the system named is interaction between Rac1 and RhoGDI. Briefly: Fluorescent foci after mevastatin, Rac1/RhoGDI (Example 22). Format: cell-based. As to conditions: cells co-expressing AG-Rac1 and RhoGDI-p62(PB1); 10 μM; 15 hours. The procedure: as §3
Test [7] deals with T3, mTOR(FRB) and FKBP12 interaction (Homo sapiens, UniProt P42345+P62942).
T3 construct: region having the 2025th to 2114th amino acids of the mTOR protein; expressed in transfected cells; host or cells: HeLaS3; 293T for some combinations with FKBP12-Tankyrase(SAM)
Briefly: Degree of fluorescent focus (assembly) formation after rapamycin, fluorescent proteins fused to mTOR(FRB) (Example 8, Table 1). Format: cell-based. Also on record: key to degree of fluorescent focus formation, Tankyrase (SAM): +++: fluorescent foci were observed in 50% or more of the HeLaS3 cells; ++: fluorescent foci were observed in 50% or less of the HeLaS3 cells; +: fluorescent foci were observed in 293T cells expressing a larger amount of proteins than that in the HeLaS3 cells. As to conditions: fluorescent protein fused to mTOR(FRB); for degree of fluorescent focus formation, DGKd (SAM): with FKBP12-DGKd(SAM); for degree of fluorescent focus formation, TEL (SAM): with FKBP12-TEL(SAM); for degree of fluorescent focus formation, Tankyrase (SAM): with FKBP12-Tankyrase(SAM), some combinations in 293T cells; for degree of fluorescent focus formation, P62 (PB1): with p62(PB1)-FKBP12. The procedure: Note that plasmid DNAs encoding fusion proteins composed of mTOR(FRB) and the corresponding fluorescent proteins were prepared as appropriate by the same method as that described in Example 2. Moreover, regarding the combinations of FKBP12-Tankyrase(SAM) with mKO2, mKeima, mMiCy1, mKO1, MiCy1, and TGuv, the test was conducted by introducing the genes into 293T cells. Specifically, the 293T cells were cultured in DMEM High glucose (manufactured by SIGMA ALDRICH CO.) containing 10% FBS (manufactured by Equitech-Bio Inc.). Moreover, the 293T cells were seeded onto an 8-well chamber (manufactured by Nunc A/S) 6 hours before the plasmid DNAs were introduced. Further, at the time of the transfection, 200 ng of the plasmid DNA encoding FKBP12-Tankyrase(SAM) and 200 ng of one of the plasmid DNAs encoding fusion proteins composed of the fluorescent proteins and mTOR(FRB) were diluted with 30 μl of OptiMEM (manufactured by Life Technologies Corporation), and 1.2 μl of TurboFect Transfection Reagent (manufactured by Thermo Fisher Scientific Inc.) was added thereto and stirred. Then, the resultant was further mixed with 300 μl of the culture solution, subsequently added to the 293T cells, and observed 48 hours later.

Test [8] addresses T3, mTOR(FRB) and FKBP12 interaction. As to the kind of experiment: Degree of fluorescent focus (assembly) formation after rapamycin with TFG(PB1) (Example 9, Table 2). Format: cell-based. The settings on record: fluorescent protein fused to mTOR(FRB), KO1 and dAG (AB) in 293T cells. Further details: key: ++: fluorescent foci were observed in 50% or less of the HeLaS3 cells; +: fluorescent foci were observed in the 293T cells expressing a larger amount of proteins than that in the HeLaS3 cells.

T3 sequence (P42345 2025-2114): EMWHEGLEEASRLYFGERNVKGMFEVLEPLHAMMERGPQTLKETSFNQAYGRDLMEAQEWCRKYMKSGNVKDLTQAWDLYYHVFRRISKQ
T3 sequence (P62942 whole entry): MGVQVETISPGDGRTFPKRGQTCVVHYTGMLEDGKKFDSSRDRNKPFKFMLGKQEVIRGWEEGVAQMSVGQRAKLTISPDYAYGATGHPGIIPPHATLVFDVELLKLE
T2 sequence (Q07817 1-209): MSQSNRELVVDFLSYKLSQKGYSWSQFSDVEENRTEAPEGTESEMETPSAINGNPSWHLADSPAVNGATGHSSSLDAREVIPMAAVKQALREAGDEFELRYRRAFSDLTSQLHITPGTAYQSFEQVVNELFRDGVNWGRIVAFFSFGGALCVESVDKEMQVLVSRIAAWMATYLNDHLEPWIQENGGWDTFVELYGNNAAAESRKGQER
T1 sequence (Q07817 1-209): as above

Consider `CN(C)CC[C@H](CSc1ccccc1)Nc1ccc(S(=O)(=O)NC(=O)c2ccc(N3CCN(Cc4ccccc4-c4ccc(Cl)cc4)CC3)cc2)cc1[N+](=O)[O-]` [ABT-737], for which the figures for the “time when the total fluorescence luminance reached a half value” in test [1] and in test [2] were “approximately 80 minutes” and “approximately 35 minutes”, respectively.

Consider `N#CC(=C(/N)Sc1ccccc1N)/C(C#N)=C(\N)Sc1ccccc1N` [U0126, reference compound], for which the “fluorescent foci after U0126 addition” value in test [3] was “the fluorescent foci were slowly decreased”.

For `NCCc1c[nH]cn1` [histamine], in test [4] (490 seconds after the cytoplasm calcium ion concentration was decreased), the “fluorescent foci at the later time point” value is on record as “extinguished”. The “fluorescent focus formation after ligand addition” value in test [4] (HeLaS3 cells expressing Calmodulin-AG and M13peptide-p62(PB1), 90 seconds after addition) is reported as “fluorescent focus formation was detected”.

As for `CC[C@H](C)C(=O)O[C@H]1CCC=C2C=C[C@H](C)[C@H](CC[C@@H]3C[C@@H](O)CC(=O)O3)[C@H]21` [mevastatin], the “localization of the interaction between Rac1 and PBD” value in test [5] is on record as “the interaction took place only in the nuclei”. For the same compound, the “interaction between Rac1 and RhoGDI” value in test [6] was “reduced”.

For Azami-Green [AG], in test [7], the “degree of fluorescent focus formation, DGKd (SAM)” value (shortened to “degree … DGKd (SAM)”) is “+++ (fluorescent foci were observed in 50% or more of the HeLaS3 cells)”; the “degree of fluorescent focus formation, TEL (SAM)” value (“degree … TEL (SAM)” for short) was “+++ (fluorescent foci were observed in 50% or more of the HeLaS3 cells)”; the “degree of fluorescent focus formation, Tankyrase (SAM)” value (shortened to “degree … Tankyrase (SAM)”) is given as “+++ (fluorescent foci were observed in 50% or more of the HeLaS3 cells)”; the “degree of fluorescent focus formation, P62 (PB1)” value (from here on “degree … P62 (PB1)”) is listed as “+++ (fluorescent foci were observed in 50% or more of the HeLaS3 cells)”. The “degree of fluorescent focus formation, TFG (PB1)” value (shortened to “degree … TFG (PB1)”) in test [8] is reported as “++ (fluorescent foci were observed in 50% or less of the HeLaS3 cells)”.

On to Kikume Green-Red [KikGR], for which, in test [7], the “degree … DGKd (SAM)” value was “+++ (fluorescent foci were observed in 50% or more of the HeLaS3 cells)”; the “degree … TEL (SAM)” value was “+++ (fluorescent foci were observed in 50% or more of the HeLaS3 cells)”; the “degree … Tankyrase (SAM)” value is “+++ (fluorescent foci were observed in 50% or more of the HeLaS3 cells)”; the “degree … P62 (PB1)” value is “+++ (fluorescent foci were observed in 50% or more of the HeLaS3 cells)”. In addition, the “degree … TFG (PB1)” value in test [8] is “++ (fluorescent foci were observed in 50% or less of the HeLaS3 cells)”.

Regarding Kusabira-Orange 1 [KO1], in test [7], the “degree … DGKd (SAM)” value is on record as “+++ (fluorescent foci were observed in 50% or more of the HeLaS3 cells)”; the “degree … TEL (SAM)” value is given as “+++ (fluorescent foci were observed in 50% or more of the HeLaS3 cells)”; the “degree … Tankyrase (SAM)” value is “++ (fluorescent foci were observed in 50% or less of the HeLaS3 cells)”; the “degree … P62 (PB1)” value is “+++ (fluorescent foci were observed in 50% or more of the HeLaS3 cells)”. For the same compound, in test [8], the “degree … TFG (PB1)” value is “+”.

Midoriishi-Cyan1 [MiCy1]: in test [7], the “degree … DGKd (SAM)” value is “+++ (fluorescent foci were observed in 50% or more of the HeLaS3 cells)”; the “degree … TEL (SAM)” value was “+++ (fluorescent foci were observed in 50% or more of the HeLaS3 cells)”; the “degree … Tankyrase (SAM)” value was “+”; the “degree … P62 (PB1)” value is listed as “+++ (fluorescent foci were observed in 50% or more of the HeLaS3 cells)”.

Regarding dimeric Keima-Red [dKeima], in test [7], the “degree … DGKd (SAM)” value is “+++ (fluorescent foci were observed in 50% or more of the HeLaS3 cells)”; the “degree … TEL (SAM)” value is on record as “+++ (fluorescent foci were observed in 50% or more of the HeLaS3 cells)”; the “degree … Tankyrase (SAM)” value is recorded as “++ (fluorescent foci were observed in 50% or less of the HeLaS3 cells)”; the “degree … P62 (PB1)” value is given as “+++ (fluorescent foci were observed in 50% or more of the HeLaS3 cells)”.

For monomeric Keima-Red [mKeima], in test [7], the “degree … DGKd (SAM)” value is “+++ (fluorescent foci were observed in 50% or more of the HeLaS3 cells)”; the “degree … TEL (SAM)” value is “++ (fluorescent foci were observed in 50% or less of the HeLaS3 cells)”; the “degree … Tankyrase (SAM)” value is “+”; the “degree … P62 (PB1)” value was “+++ (fluorescent foci were observed in 50% or more of the HeLaS3 cells)”.

In the case of monomeric Kusabira-Orange 1 [mKO1], in test [7], the “degree … DGKd (SAM)” value is on record as “+++ (fluorescent foci were observed in 50% or more of the HeLaS3 cells)”; the “degree … TEL (SAM)” value is recorded as “+++ (fluorescent foci were observed in 50% or more of the HeLaS3 cells)”; the “degree … Tankyrase (SAM)” value is “+”; the “degree … P62 (PB1)” value was “+++ (fluorescent foci were observed in 50% or more of the HeLaS3 cells)”.
